Key:
human HER1 ectodomain = target: T1, human HER1 ectodomain (human, UniProt P00533 25-645); test: SPR Biacore T100, 37 C, antibody captured via anti-human IgG-Fc, ECD as analyte, 1:1 Langmuir fit
T1 construct: extracellular domain; also called hu HER1 ECD; Her1 ECD
Procedure: (§1) All experiments were performed on a Biacore T100 (GE Healthcare). Experimental results were analyzed using the T100 control and evaluation software package (GE Healthcare, v2.03). The assay format was a ‘multi cycle kinetic’ measurement on a CM5-chip. […] Using a concentration series, seven increasing concentrations of each of the antigens (human Her1, Her2, and Her3 ectodomain) were injected separately. […] Running buffer was PBS-T. Dilution buffer was PBST containing BSA (c=1 mg/mL). Capturing of MAbs<HerX> on flow cell 2, 3, and 4 with a concentration of approx. c=1 nM, flow 50/min, time 72 sec. […] Dissociation time: 1800 sec. Each concentration was analyzed as duplicate. Final regeneration was performed after each cycle using 3 M MgCl2 (recommended by vendor) with a contact time of 120 sec and a flow rate of 50 μl/min. Analysis of simultaneous binding: Her2/Her3, Her3/Her2 or Her1/Her2 were injected consecutively using the dual inject mode with a contact time of 180 sec. each. The antigen concentration was chosen for each antigen at the saturation as observed in the kinetics experiment. […] A temperature of 25° C. was chosen to minimize dissociation. Triplicates for each combination were determined. Flow rate 30 mL/min, dual inject with two injects, each 180 sec.

human HER3 ectodomain = target: T2, human HER3 ectodomain (human, UniProt P21860 20-643); test: as above
T2 construct: extracellular domain; also called hu HER3 ECD; Her3 ECD
Procedure: as §1

human HER2 ectodomain = target: T3, human HER2 ectodomain (human, UniProt P04626 23-652); test: SPR (Biacore T100), antibody captured via anti-human IgG-Fc on a CM5 chip, dual inject Her2 then Her3 ectodomain, 180 s each, 25 °C
T3 construct: extracellular domain; also called hu HER2 ECD; Her2 ECD
Procedure: as §1

T2 sequence (P21860 20-643): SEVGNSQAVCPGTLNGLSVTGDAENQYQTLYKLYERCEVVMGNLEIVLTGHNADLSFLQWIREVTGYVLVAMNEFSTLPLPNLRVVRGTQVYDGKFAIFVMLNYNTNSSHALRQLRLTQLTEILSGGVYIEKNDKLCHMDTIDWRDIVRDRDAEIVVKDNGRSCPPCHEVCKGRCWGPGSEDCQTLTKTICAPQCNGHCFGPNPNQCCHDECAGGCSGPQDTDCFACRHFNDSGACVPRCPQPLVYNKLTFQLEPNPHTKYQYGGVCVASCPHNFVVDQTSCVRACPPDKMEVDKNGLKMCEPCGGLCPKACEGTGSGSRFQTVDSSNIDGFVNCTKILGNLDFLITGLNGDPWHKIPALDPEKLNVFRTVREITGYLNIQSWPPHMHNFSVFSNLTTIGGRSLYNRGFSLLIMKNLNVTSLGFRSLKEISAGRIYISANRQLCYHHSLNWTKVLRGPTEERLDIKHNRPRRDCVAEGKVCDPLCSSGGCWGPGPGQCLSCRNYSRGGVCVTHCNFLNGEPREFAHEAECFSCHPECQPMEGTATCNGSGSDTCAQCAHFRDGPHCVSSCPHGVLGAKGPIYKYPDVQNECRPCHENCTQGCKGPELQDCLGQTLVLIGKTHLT

Row | Binder | Kd (human HER1 ectodomain) | koff (human HER1 ectodomain) | kon (human HER1 ectodomain) | t ½ (human HER1 ectodomain) | Kd (human HER3 ectodomain) | koff (human HER3 ectodomain) | kon (human HER3 ectodomain) | t ½ (human HER3 ectodomain) | binding result (human HER2 ectodomain)
1 | parental DAF (Her1-Her3 dual affinity antibody) (antibody, also called DAF antibody; Bispecific parent Her1/Her3 (with KiH)) heavy 1: not shown heavy 2: not shown light: DIQMTQSPSSLSASVGDRVTITCRASQNIATDVAWYQQKPGKAPKLLIYSASFLYSGVPSRFSGSGSGTDFTLTISSLQPEDFATYYCQQSEPEPYTFGQGTKVEIKRTVAAPSVFIFPPSDEQLKSGTASVVCLLNNFYPREAKVQWKVDNALQSGNSQESVTEQDSKDSTYSLSSTLTLSKADYEKHKVYACEVTHQGLSSPVTKSFNRGEC | 14 nM | 0.021 s⁻¹ | 1.4e+06 M⁻¹ s⁻¹ | 0.6 min | 1.9 nM | 0.0037 s⁻¹ | 2e+06 M⁻¹ s⁻¹ | 3.1 min | no binding
2 | trispecific antibody KiH Her1-Her3 DAF-xHer2 (antibody, human IgG1, kappa, also called Trispecific Her1/Her3 xHer2) heavy 1: not shown heavy 2: not shown light 1: DIQMTQSPSSLSASVGDRVTITCRASQNIATDVAWYQQKPGKAPKLLIYSASFLYSGVPSRFSGSGSGTDFTLTISSLQPEDFATYYCQQSEPEPYTFGQGTKVEIKRTVAAPSVFIFPPSDEQLKSGTASVVCLLNNFYPREAKVQWKVDNALQSGNSQESVTEQDSKDSTYSLSSTLTLSKADYEKHKVYACEVTHQGLSSPVTKSFNRGEC light 2: DIQMTQSPSSLSASVGDRVTITCKASQDVSIGVAWYQQKPGKAPKLLIYSASYRYTGVPSRFSGSGSGTDFTLTISSLQPEDFATYYCQQYYIYPYTFGQGTKVEIKSSASTKGPSVFPLAPSSKSTSGGTAALGCLVKDYFPEPVTVSWNSGALTSGVHTFPAVLQSSGLYSLSSVVTVPSSSLGTQTYICNVNHKPSNTKVDKKVEPKSC | 17 nM | 0.02 s⁻¹ | 1.2e+06 M⁻¹ s⁻¹ | 0.6 min | 1.8 nM | 0.0044 s⁻¹ | 2.4e+06 M⁻¹ s⁻¹ | 2.6 min | 

Reference: patent publication US20150166670A1 (Hoffmann-La Roche, published 2015)
